# Assay results reported in PMC4243253.
# Substrate: N[C@@H](CC(=O)c1ccccc1NC=O)C(=O)O
# Assay: purified protein
# Format: biochemical, Burkholderia cenocepacia
# Conditions: 0.1 M sodium phosphate, pH 7.4, 20 μM ZnCl2, 25°C
protein,measurement,value
BcKynB (Burkholderia cenocepacia J2315) (protein) MDTLWDISPPVSPATPVWPGDTPVAVERVWRMEAGSPVNVARLTLSPHTGAHCDAPLHYDADGAPIGAVPLDTYLGPCRVIHCIGAAPVVRPADVEAALDGVPPRVLLRTYARAAVEQWDSNFCAVAPDTVDLLAAHGVKLIGIDTPSLDPQESKTMDAHRRVRAHRMAILEGIVLDDVPPGDYELIALPLKFATLDASPVRAVLRALPAQAS,Km,570 ± 20 µM
same,Vmax,0.0582 µmol/min
same,kcat,43.9 s⁻¹
same,kcat/Km,77100 M⁻¹ s⁻¹
